EC50 data for one molecule are collected here from patent publication US20190382503A1 (published 2019).

Assay [1] addresses T1, human 5T4 on cells (human, UniProt Q13641 32-420).
T1 construct: Human 5T4 on transfected cells (CHO-K1, CT26, B16) or endogenous on human tumour lines; the cell line is named under assay; also called trophoblast glycoprotein; TPBG
T1 sequence: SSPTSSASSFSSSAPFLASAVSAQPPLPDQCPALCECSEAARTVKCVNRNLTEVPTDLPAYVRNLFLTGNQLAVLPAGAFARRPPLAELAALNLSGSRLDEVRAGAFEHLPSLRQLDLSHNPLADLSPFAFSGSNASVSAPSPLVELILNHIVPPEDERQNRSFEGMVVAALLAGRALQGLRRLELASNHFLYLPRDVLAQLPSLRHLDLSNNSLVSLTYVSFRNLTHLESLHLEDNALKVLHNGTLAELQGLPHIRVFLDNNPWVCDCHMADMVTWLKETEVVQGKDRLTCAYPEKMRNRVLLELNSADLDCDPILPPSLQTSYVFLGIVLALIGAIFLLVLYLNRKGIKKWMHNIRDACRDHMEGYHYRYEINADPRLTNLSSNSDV
Kind of assay: flow cytometry, HCT-116 cells, streptavidin-PE, normalized MFI of 2 pooled experiments. The method, then:
(§1) FACS staining and analysis of 5T4-expressing cell lines: Prior to the FACS staining, all cell lines were characterized for their 5T4 expression levels using a receptor density kit (Quantum Simply Cellular, anti-human IgG, Bangs Laboratories, Inc). Adherent cell lines were cultured according to their supplier's instructions and were harvested from their cell culture flasks using Trypsin/EDTA, counted in R10 medium in a Burker chamber, and diluted in FACS buffer (PBS+0.5% BSA, 0.05% NaN₃) to a concentration of 4×10⁶ cells/mL. 50 μL (0.20×10⁶) of cell solution was added to a 96-well FACS staining plate (Falcon #351190). Cells were incubated for 20 min in 4° C. with 50 μL of the biotinylated ALG.APV-210 (2× final concentration). The antibodies were added in a serial dilution starting at 20 μg/mL titrating down in a 12 step 1/2 dilution down to 0.010 μg/mL. […] Cells were analysed for ALG.APV-210 binding using flow cytometry (FACSVerse) by gating on single cells. MFI values (secondary antibody only subtracted) from 1 out of 2 independent experiments, as well as normalized data and EC₅₀-values of pooled data from 2 experiments were determined and plotted using GraphPad Prism 7, non-linear regression log (agonist) vs. normalized response-variable slope.
(Flow cytometry measures light scatter and fluorescence of single cells or particles in a stream.)

Assay [2] addresses T1, human 5T4 on cells. Kind of assay: flow cytometry, CT26-hu5T4^int cells, streptavidin-PE, normalized MFI of 2 pooled experiments. The method, then:
(§2) Biotinylation: In order to detect ALG.APV-210 binding to 5T4-expressing cell lines, ALG.APV-210 was first biotinylated. The quality of the biotinylated protein and the impact on binding to its targets was assessed using ELISA.
as §1, with “concentration).” for “concentration). The antibodies were added in a serial dilution starting at 20 μg/mL titrating down in a 12 step 1/2 dilution down to 0.010 μg/mL.”

For the next assay, the target named is T2, human CD137 on cells (human, UniProt Q07011 24-255).
T2 construct: Human CD137 on CHO-K1 transfectants, Jurkat/CD137 reporter cells or CD3-stimulated primary human CD8 T cells; cells named under assay; also called 4-1BB; TNFRSF9
The assay is described as follows: flow cytometry, MFI of the CD137 positive CD8 T cells. The method, then:
(§3) FACS staining and analysis of CD8 T cells: Following 48 h of incubation with or without CD3, human and cynomolgus PBMC were harvested, pooled, recounted and diluted in FACS buffer (PBS+0.5% BSA, 0.05% NaN₃) to a concentration of 5×10⁶ cells/mL. 50 μL (0.25×10⁶ cells) of cell solution was added to a 96-well FACS staining plate (Falcon #351190). Following 10 min of Fc-blocking in RT using Beriglobin (hIgG, 200 μg/mL), cells were washed in FACS buffer and then incubated for 1 h in 4° C. with 100 μL of the biotinylated ALG.APV-210 or negative control. […] Cells were analysed for ALG.APV-210 binding using flow cytometry by gating on viable, single cells expressing CD3 and CD8. MFI values (FMO subtracted) from 2 independent experiments as well as normalized pooled data from 2 experiments and EC₅₀-values were determined and plotted using GraphPad Prism 7, non-linear regression log (agonist) vs. normalized response-variable slope, n=6 donors/group.
(§4) ALG.APV-210 binding was also assessed by looking at the percentage of CD8 T cells bound by ALG.APV-210. […] The binding EC₅₀ values were also calculated on the MFI of the CD137 positive cells, and the results was an EC₅₀ of 0.17 nM for binding to human CD137 and 0.20 nM for cynomolgus monkey CD137.

Assay [3] addresses T3, cynomolgus CD137 on cells (cynomolgus macaque, UniProt A9YYE7 24-254).
T3 construct: whole, on cells; also called CHO-K1/cynomolgus CD137; cynomolgus monkey CD137
The assay is described as above. The method, then:
as §3, §4

The target in assay [4] is T1, human 5T4 on cells. The assay is described as follows: flow cytometry, HT-29 cells, streptavidin-PE, normalized MFI of 2 pooled experiments. The method, then:
as §1

Assay [5] concerns the target T4, CD137 / 4-1BB (soluble antigen, form not stated) (UniProt Q07011 24-186, limits assumed).
T4 construct: also called biotinylated 4-1BB antigen; CD137 in ELISA
Kind of assay: ELISA. Background: An ELISA detects its analyte on a solid surface through an enzyme-linked reagent.

In assay [6] the target is T1, human 5T4 on cells. Kind of assay: flow cytometry, CHO-hu5T4 cells, streptavidin-PE, normalized MFI of 2 pooled experiments. The method, then: as §2
as §1, with “concentration).” for “concentration). The antibodies were added in a serial dilution starting at 20 μg/mL titrating down in a 12 step 1/2 dilution down to 0.010 μg/mL.”

T2 sequence (Q07011 24-255 limits assumed): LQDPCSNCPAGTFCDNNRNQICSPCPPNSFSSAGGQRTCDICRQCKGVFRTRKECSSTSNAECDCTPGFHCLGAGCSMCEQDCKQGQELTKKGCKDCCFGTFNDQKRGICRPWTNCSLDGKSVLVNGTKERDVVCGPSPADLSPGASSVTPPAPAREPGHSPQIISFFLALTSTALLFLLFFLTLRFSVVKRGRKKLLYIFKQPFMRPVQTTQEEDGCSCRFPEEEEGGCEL
T3 sequence (A9YYE7 entry or part of it): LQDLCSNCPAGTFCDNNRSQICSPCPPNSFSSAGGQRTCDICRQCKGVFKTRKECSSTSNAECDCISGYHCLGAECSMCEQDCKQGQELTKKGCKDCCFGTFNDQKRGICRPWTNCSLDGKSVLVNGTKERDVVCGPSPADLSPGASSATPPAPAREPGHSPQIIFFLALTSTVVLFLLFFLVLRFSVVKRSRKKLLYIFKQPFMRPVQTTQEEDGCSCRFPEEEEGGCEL

B1: biotinylated ALG.APV-210 (bispecific antibody)
chain: EVQLLESGGGLVQPGGSLRLSCAASGFTFSHGSMYWVRQAPGKGLEWVSSISSGSGSTYYADSVKGRFTISHDNSKNTLYLQMNSLRAEDTAVYYCARSSYYGSYYSIDYWGQGTLVTVSSGGGGSGGGGSGGGGSGGGGSDIQMTQSPSSLSASVGDRVTITCRASQSISSYLNWYQQKPGKAPKLLIYAASSLQSGVPSRFSGSGSGTDFTLTISSLQPEDFATYYCQQYYDNLPTFGQGTKLEIKEPKSSDKTHTCPPCPAPEAAGAPSVFLFPPKPKDTLMISRTPEVTCVVVDVSHEDPEVKFNWYVDGVEVHNAKTKPREEQYNSTYRVVSVLTVLHQDWLNGKEYKCAVSNKALPAPIEKTISKAKGQPREPQVYTLPPSRDELTKNQVSLTCLVKGFYPSDIAVEWESNGQPENNYKTTPPVLDSDGSFFLYSKLTVDKSRWQQGNVFSCSVMHEALHNHYTQKSLSLSPGSGGGGSGGGGSGGGGSPSEVQLLESGGGLVQPGGSLRLSCAASGFTFSSYAMSWVRQAPGKCLEWVSAISGSGGSTYYADSVKGRFTISRDNSKNTLYLQMNSLRAEDTAVYYCARYYGGYYSAWMDYWGQGTLVTVSSGGGGSGGGGSGGGGSGGGGSDIQMTQSPSSLSASVGDRVTITCRASQSISSFLNWYQQKPGKAPKLLIYAASSLQSGVPSRFSGSGSGTDFTLTISSLQPEDSATYYCQQTYGYLHTFGCGTKLEIKR
modifications: biotinylated (sites not given)
For orientation: EC50 means the concentration at which the effect is half-maximal. A higher EC50 goes with weaker potency. Regarding B1, the EC50 was found to be 16 nM with human 5T4 on cells [1]; 12 nM with human 5T4 on cells [2]; 0.17 nM with human CD137 on cells; 0.2 nM in assay [3]; 12 nM with human 5T4 on cells [4]; 0.6 nM in assay [5]. Further, in the assay with human 5T4 on cells [6], a half-maximal response (EC50) required 23 nM.
